We go through 4 substances from PMC3215728.

Test [1] addresses His6-tagged dysferlin (human) (UniProt O75923). As to the kind of experiment: SEC; Superose 6 HR 10/30 FPLC; mobile phase 1% CHAPS, 150 mM NaCl, 50 mM Tris pH 7.5, 0.4 ml/min; fractions blotted with Hamlet antibody; monomer to dimer. As to conditions: remark: other sources report otherwise.
The target in test [2] is CFP-dysferlin / YFP-dysferlin (full-length human dysferlin) expressed in mouse FDB muscle fibers (human) (UniProt O75923). As to the kind of experiment: FRET or BRET; acceptor-selective photobleaching FRET between CFP-dysferlin and YFP-dysferlin in living FDB muscle fibers isolated from electroporated dysferlin-deficient mice. As to conditions: remark: other sources report otherwise.

Test [3] concerns the target CFP-dysferlin / YFP-dysferlin (full-length human dysferlin) expressed in HEK293 cells (human) (UniProt O75923). As to the kind of experiment: fluorescence correlation spectroscopy (FCS); YFP-dysferlin diffusing in detergent solution, Triton X-100; 2-species fit. As to conditions: remark: other sources report otherwise.
The target is the same in test [4]. As to the kind of experiment: FRET or BRET; three-cube fluorescence microscopy (E-FRET), pixel by pixel, CFP-dysferlin and YFP-dysferlin in living HEK293 cells. As to conditions: remark: other sources report otherwise.
For test [5] the target is unchanged. As to the kind of experiment: photon counting histogram (PCH); detergent solubilized YFP-dysferlin in CHAPS or DDM; molecular brightness normalised to monomeric YFP. As to conditions: remark: other sources report otherwise.
Test [6] has the same target. As to the kind of experiment: fluorescence correlation spectroscopy (FCS); YFP-dysferlin diffusing in detergent solution, 1% CHAPS or 0.5% DDM; single species diffusion model. As to conditions: remark: other sources report otherwise.
Test [7] shares this target. Nature of the test: FRET or BRET; acceptor-selective photobleaching FRET between CFP- and YFP-tagged copies in living HEK293 cells; linearity of donor against acceptor for stoichiometry; hyperbolic fit of FRET against YFP intensity gives FRETmax and KD in arbitrary units. As to conditions: remark: other sources report otherwise.
For test [8], the target named is Endogenous dysferlin from rabbit skeletal muscle (rabbit (endogenous in skeletal muscle)). Nature of the test: cross-linking; rabbit skeletal muscle microsomes with or without 100 µM o-PDM on ice for 30 min; SDS-PAGE and western blot.

On to His6-tagged dysferlin, O75923 1-2080, for which the stoichiometry N in test [1] is 2.
In test [2], “CFP-dysferlin / YFP-dysferlin (full-length human dysferlin) expressed in mouse FDB muscle fibers, O75923 1-2080” gave an FRETmax of 33.3% and a stoichiometry N of 2.
With “CFP-dysferlin / YFP-dysferlin (full-length human dysferlin) expressed in HEK293 cells, O75923 1-2080”, the percent of molecules diffusing as the slower (dimer) species in test [3] turned out to be 17%. The same substance yielded an FRET efficiency in test [4] of 20.6%. Moreover, the stoichiometry N in test [5], in test [6] and in test [7] was 2 in each case. Also, the FRETmax in test [7] worked out at 26.8%.
The substance “Endogenous dysferlin from rabbit skeletal muscle (natural protein)” displayed a stoichiometry N in test [8] of 2.
